From US20090226422, “Chemical Inhibitors of Inhibitors of Differentiation” (published 2009)

Columns and labels:
E47 + Id1 = molecular target: T1, E47 + Id1 (Homo sapiens, UniProt P15923-2;P41134 P15923-2:1-651,P41134:1-155); test: EMSA; Id1 (100 ng) added to E47 prevents E47 binding to MCK; binding restored by small-molecule Id inhibitors (100 uM, 5% DMSO); conditions: tags: recombinant human E47 mixed with recombinant human Id1 (100 ng); label: 32P
T1 sequence 1: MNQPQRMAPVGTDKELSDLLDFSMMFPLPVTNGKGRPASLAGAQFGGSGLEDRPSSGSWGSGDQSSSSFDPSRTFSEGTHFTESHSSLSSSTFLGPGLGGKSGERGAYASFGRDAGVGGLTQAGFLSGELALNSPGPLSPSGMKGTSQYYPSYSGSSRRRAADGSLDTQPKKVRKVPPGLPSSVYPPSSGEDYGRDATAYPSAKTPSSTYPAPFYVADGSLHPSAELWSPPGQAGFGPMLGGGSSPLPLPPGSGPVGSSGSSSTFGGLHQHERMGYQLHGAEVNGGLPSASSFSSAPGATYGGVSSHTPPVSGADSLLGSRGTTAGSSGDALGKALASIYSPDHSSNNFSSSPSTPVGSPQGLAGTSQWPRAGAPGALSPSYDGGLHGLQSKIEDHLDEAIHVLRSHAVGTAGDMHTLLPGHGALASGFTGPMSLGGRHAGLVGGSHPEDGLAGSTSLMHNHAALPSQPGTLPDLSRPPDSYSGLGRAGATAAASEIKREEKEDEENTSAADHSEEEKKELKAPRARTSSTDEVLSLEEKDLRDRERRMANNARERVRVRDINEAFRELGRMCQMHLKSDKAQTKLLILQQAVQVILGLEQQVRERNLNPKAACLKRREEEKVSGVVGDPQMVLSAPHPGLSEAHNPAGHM
T1 sequence 2: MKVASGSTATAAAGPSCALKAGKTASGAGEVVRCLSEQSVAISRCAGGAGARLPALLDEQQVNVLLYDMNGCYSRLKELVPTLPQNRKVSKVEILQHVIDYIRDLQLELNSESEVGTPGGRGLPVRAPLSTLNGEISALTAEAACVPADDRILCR
Description: (§1) Gel shift assays were performed using the 376 small molecules identified in the in silico drug screen and peptide synthesis. The identified compounds were then dissolved in 5% DMSO to a concentration of […] and reacted in binding mixtures that contained E47, Id1 and Mck. As controls, recombinant human E47 was used in a standard binding reaction that contained ³²P labeled MCK double stranded oligonucleotides containing consensus E-Box response element (MCK-5′ TTGATCCCCCCAACACCTGCTGCCTGAAGCT (SEQ ID NO. 1)) and 100 ng of Id1 was added to a standard binding reaction using E47 and p32 labeled MCK. After 30 minutes of incubation, the reaction mixtures were resolved on a 5% non-denaturing polyacrylamide gel and autoradiographed.

E47 (TCF3) = molecular target: T2, E47 (TCF3) (Homo sapiens, UniProt P15923-2 P15923-2:1-651); test: EMSA; 5% non-denaturing PAGE, 30 min incubation; E47 homodimer shifts the probe; conditions: tags: recombinant human E47; chain copies: 2 (homodimer, stated); label: 32P
T2 sequence: T1 sequence 1
Description: as §1

B1: MCK E-box oligonucleotide (dsDNA)
DNA 1: TTGATCCCCCCAACACCTGCTGCCTGAAGCT
DNA 2: AGCTTCAGGCAGCAGGTGTTGGGGGGATCAA
B1: no binding (E47 + Id1); binds (E47 (TCF3)).
